Experiments:
[1] = biological target: T1, human PD-L1 (human, UniProt Q9NZQ7 19-290); experiment: cell-based or functional assay
[2] = biological target: T1, human PD-L1; experiment: competition autoradiography on frozen tissue sections; unlabeled A02 at 0.025, 0.25, 2.5 and 25 nM displaces 0.25 nM 18F-DBCO-A02 radioligand
[3] = biological target: T1, human PD-L1; experiment: radioligand cell binding on ice for 1 hour, gamma counter
Protocol: After the incubation period, cell samples were centrifuged at 200×g and the supernatant was discarded. Cell pellets were resuspended in 1 mL PBS+0.5% BSA and the wash procedure repeated for a total of 3 washes. Following the final wash, cells were again centrifuged at 200×g and the supernatant was discarded. The radioactivity of the remaining cell pellets was then measured by gamma counter.

B1: [^18F]-radiolabeled-A02-PEG-DBCO-FPPEGA (designed binder)
chain: EVVAATPTSLLISWSYDGPIDRYYRITYGETGGNSPVQEFTVPPDQKTATISGLKPGVDYTITVYAVRLEEAHYNREFPISINYRTPC
modifications: C-terminal cysteine linked to Maleimide-PEG4-DBCO and clicked to [^18F]-FPPEGA (produced as described in Example 9)
maximum radiotracer uptake ratio, hPD-L1(+) L2987 vs. hPD-L1(-) HT-29 xenografts [1]: 3.53 ratio | radiotracer uptake in PD-L1(+) L2987 xenografts relative to PD-L1(-) HT-29 xenografts, PET in mice, co-injected with 3 mg/kg unlabeled A02 Adnectin [1]: 1.04 fold | radiotracer uptake in PD-L1(+) L2987 xenografts relative to PD-L1(-) HT-29 xenografts, PET in mice, final 10 minutes of the time-activity curve [1]: 3.05 fold

B2: A02 Adnectin, cold (unlabeled) (designed binder)
chain: EVVAATPTSLLISWSYDGPIDRYYRITYGETGGNSPVQEFTVPPDQKTATISGLKPGVDYTITVYAVRLEEAHYNREFPISINYRTPC
notes: also called unlabeled anti-PD-L1 A02 adnectin
binding result [2]: binds

B3: [^18F]-E01-4PEG-DBCO-FPPEGA (designed binder)
chain: GVSDVPRDLEVVAATPTSLLISWRAQLSPSFYYRITYGETGGNSPVQEFTVPNDVMTATISGLKPGVDYTITVYAVTTHGVYFYSPISINYRTPC
modifications: C-terminal cysteine thiol linked to Maleimide-PEG4-DBCO, which is clicked to [^18F]-FPPEGA (^18F prosthetic group)
notes: also called ^18F-radiolabeled E01-4PEG-DBCO; ^18F-E01 adnectin radiotracer
fold cell associated radioactivity, PD-L1-positive L2987 cells over PD-L1-negative HT-29 cells [3]: 44.6 fold

Reference: patent US20230241258A1 (Bristol-Myers Squibb, published 2023)
